Measured values reported in article PMC10679814, “Yeast lunapark regulates the formation of trans-Sey1p complexes for homotypic ER membrane fusion” (iScience, 2023).

What was measured:
[1] = molecular target: Sey1p-ΔTM (S. cerevisiae); assay: SEC; Superdex 200 (10/300), 20 mM HEPES-NaOH pH 7.4, 150 mM NaCl; Sey1p-ΔTM incubated at 30°C for 1 h with GMP-PNP, without or with the Lnp1p peptide
[2] = molecular target: T1, His6-tagged Sey1p-(1-675), the N-terminal cytoplasmic region of Sey1p (S. cerevisiae, UniProt Q99287 1-675); assay: pull-down; 40 μg his6-tagged protein with 20 μM Lnp1p peptide in RB150 buffer, 0.4% Triton X-100, 20 mM imidazole, 4°C 2 h; Ni-NTA agarose 30 min; SDS-PAGE, Coomassie; details: both partners purified
T1 construct: in pET28a; source: E. coli Rosetta-2 DE3, purified (Ni-NTA)
T1 sequence (looked up): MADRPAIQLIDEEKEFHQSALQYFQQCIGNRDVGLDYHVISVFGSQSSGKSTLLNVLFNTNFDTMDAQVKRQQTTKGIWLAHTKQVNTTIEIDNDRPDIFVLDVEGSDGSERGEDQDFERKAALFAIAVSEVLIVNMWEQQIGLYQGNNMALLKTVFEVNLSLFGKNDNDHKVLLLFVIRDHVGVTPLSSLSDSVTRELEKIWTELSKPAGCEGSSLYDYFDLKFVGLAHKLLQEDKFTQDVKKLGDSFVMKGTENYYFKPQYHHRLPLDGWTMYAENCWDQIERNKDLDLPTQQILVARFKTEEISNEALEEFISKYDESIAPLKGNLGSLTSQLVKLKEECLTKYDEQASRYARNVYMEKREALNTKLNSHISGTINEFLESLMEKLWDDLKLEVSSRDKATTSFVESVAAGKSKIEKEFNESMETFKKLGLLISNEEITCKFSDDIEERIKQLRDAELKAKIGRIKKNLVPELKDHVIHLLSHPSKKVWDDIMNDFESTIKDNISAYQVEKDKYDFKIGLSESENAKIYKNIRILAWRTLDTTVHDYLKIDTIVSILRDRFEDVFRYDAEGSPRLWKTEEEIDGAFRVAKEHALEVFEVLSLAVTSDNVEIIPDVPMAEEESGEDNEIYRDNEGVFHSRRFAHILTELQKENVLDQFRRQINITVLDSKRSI

[3] = molecular target: T2, His6-tagged Sey1p-(1-283) (S. cerevisiae, UniProt Q99287 1-283); assay: as above; details: both partners purified
T2 construct: Sey1p, S. cerevisiae, amino acids 1-283 (GTPase domain); in pET28a; also called GTPase domain of Sey1p; source: E. coli Rosetta-2 DE3, purified (Ni-NTA)
T2 sequence (looked up): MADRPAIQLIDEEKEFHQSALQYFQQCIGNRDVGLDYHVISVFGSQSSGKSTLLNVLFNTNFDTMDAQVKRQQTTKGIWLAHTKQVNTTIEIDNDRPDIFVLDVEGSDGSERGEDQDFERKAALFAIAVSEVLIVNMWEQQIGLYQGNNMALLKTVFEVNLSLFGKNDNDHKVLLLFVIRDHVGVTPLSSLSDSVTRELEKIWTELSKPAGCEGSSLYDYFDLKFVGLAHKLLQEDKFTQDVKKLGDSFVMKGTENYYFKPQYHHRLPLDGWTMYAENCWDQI

Which stoichiometry N [1] does the source give for Sey1p-ΔTM (domain or fragment) here?
The stoichiometry N was 2.

B1: Lnp1p peptide, a synthetic peptide with the N-terminal region (amino acids 1-52) of Lnp1p (peptide, UniProt P38878 1-52, looked up)
peptide: MFSALGKWVRGSRNDKDFVTKYTADLSQITSQIHQLDVALKKSQSILSQWQS
notes: Lnp1p (yeast lunapark), S. cerevisiae, amino acids 1-52; also called LNP1 peptide; source: synthetic peptide (custom, Anygen)
Does B1 bind [2]?
Result: binds

Does B1 bind [3]?
Result: binds
